Experimental data from patent US6828116.

Tested on: T1, Cy5-Ala-Ala-Phe-Phe-Ala-Ala-Lys-Compound III
T1 sequence: AAFFAAK

Substance: pepsin
- Cy5 fluorescence intensity over time (FRET quench release on cleavage), with and without pepsin: Protease-catalysed hydrolysis of the substrate removes this quenching, restoring the Cy5 fluorescence.
